Positions count from the first letter of the chain named.
T1: INCENP N-terminal domain (1-58), His- and Avi-tagged, biotinylated (UniProt Q9NQS7 1-58, biotinylated (Avi-tag, co-expressed E. coli biotin ligase BirA))
T1 construct: range 1-58; Expressed in E. coli BL21(DE3); also called INC-N; INCENP N-terminal domain (AA 1-58); not shown: His-tag and Avi-tag
T1 sequence (looked up): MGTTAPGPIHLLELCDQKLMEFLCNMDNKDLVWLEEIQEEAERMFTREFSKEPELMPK

T2: INCENP on the surface of murine tumor cells (Mus musculus, UniProt Q9WU62)
T2 construct: kept apart from m4 because the cells are murine; also called cell surface INCENP on CT26, MC38 and 4T1 cells
T2 sequence (single chain, looked up): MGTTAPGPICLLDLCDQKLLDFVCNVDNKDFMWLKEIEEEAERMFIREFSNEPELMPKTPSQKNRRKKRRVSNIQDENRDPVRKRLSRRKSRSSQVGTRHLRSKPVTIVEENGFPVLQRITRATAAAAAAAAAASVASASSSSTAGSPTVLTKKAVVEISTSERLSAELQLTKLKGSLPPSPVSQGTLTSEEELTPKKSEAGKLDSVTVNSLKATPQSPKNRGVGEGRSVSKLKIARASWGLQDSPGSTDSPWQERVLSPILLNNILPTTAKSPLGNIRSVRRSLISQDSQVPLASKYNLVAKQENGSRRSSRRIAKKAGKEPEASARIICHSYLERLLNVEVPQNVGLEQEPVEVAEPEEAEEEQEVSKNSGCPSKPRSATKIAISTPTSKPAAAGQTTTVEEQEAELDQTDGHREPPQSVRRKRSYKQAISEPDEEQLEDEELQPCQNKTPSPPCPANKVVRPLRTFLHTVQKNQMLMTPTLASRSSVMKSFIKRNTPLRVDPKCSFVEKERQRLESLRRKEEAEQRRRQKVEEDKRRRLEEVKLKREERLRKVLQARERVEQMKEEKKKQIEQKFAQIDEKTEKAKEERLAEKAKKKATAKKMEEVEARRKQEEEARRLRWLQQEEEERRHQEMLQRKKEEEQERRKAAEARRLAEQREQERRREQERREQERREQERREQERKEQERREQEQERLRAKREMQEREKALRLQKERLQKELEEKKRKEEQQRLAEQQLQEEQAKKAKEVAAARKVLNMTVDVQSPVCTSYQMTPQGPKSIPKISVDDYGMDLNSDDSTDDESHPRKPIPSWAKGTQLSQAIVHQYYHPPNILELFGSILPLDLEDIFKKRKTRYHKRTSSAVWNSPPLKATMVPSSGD

B1: INC-N-01 (Fab, V domains shown)
VH: EVQLVESGGGLVQPGGSLRLSCAASGFNVYYYSIHWVRQAPGKGLEWVASIYPSSGSTYYADSVKGRFTISADTSKNTAYLQMNSLRAEDTAVYYCARQWLYMLWPMWGLDYWGQGTLVTVSS
VL: DIQMTQSPSSLSASVGDRVTITCRASQSVSSAVAWYQQKPGKAPKLLIYSASSLYSGVPSRFSGSRSGTDFTLTISSLQPEDFATYYCQQSYYWPITFGQGTKVEIKR
notes: also called INC-N-01 Fab
B2: INC-N-04 (Fab, V domains shown)
VH: EVQLVESGGGLVQPGGSLRLSCAASGFNFYSYSIHWVRQAPGKGLEWVASIYSYSGYTYYADSVKGRFTISADTSKNTAYLQMNSLRAEDTAVYYCARYPLYFQYRKYYGIDYWGQGTLVTVSS
VL: B1 VL with S91G, Y92W, W94Y
notes: also called INC-N-04 Fab
B3: INC-N-34 (Fab, V domains shown)
VH: EVQLVESGGGLVQPGGSLRLSCAASGFNVSSSSIHWVRQAPGKGLEWVASIYPSSGYTSYADSVKGRFTISADTSKNTAYLQMNSLRAEDTAVYYCARKLAYYWGAQWSYSGYKGMDYWGQGTLVTVSS
VL: B1 VL with Y93W, W94Y
notes: also called INC-N-34 Fab
B4: INC-N-13 (Fab, V domains shown)
VH: EVQLVESGGGLVQPGGSLRLSCAASGFNVSYYSIHWVRQAPGKGLEWVASIYPYSGSTYYADSVKGRFTISADTSKNTAYLQMNSLRAEDTAVYYCARYPYYVYWYYWWYYALDYWGQGTLVTVSS
VL: B1 VL with Y92W, Y93S, W94Y
notes: also called INC-N-13 Fab
B5: INC-N-06 (Fab, V domains shown)
VH: EVQLVESGGGLVQPGGSLRLSCAASGFNISYSSIHWVRQAPGKGLEWVASIYPYSGSTYYADSVKGRFTISADTSKNTAYLQMNSLRAEDTAVYYCARWSLYGKWYYWWYGLDYWGQGTLVTVSS
VL: B1 VL with S91G, Y92S, W94Y
notes: also called INC-N-06 Fab
B6: INC-N-08 (Fab, V domains shown)
VH: EVQLVESGGGLVQPGGSLRLSCAASGFNFSSSSIHWVRQAPGKGLEWVASIYSYYGSTSYADSVKGRFTISADTSKNTAYLQMNSLRAEDTAVYYCARWMYKGYIFYQYFGLDYWGQGTLVTVSS
VL: B1 VL with Y92F, Y93S, W94N, P95L
notes: also called INC-N-08 Fab
B7: INC-N-11 (Fab, V domains shown)
VH: EVQLVESGGGLVQPGGSLRLSCAASGFNVSYYSIHWVRQAPGKGLEWVASIYPSSGSTYYADSVKGRFTISADTSKNTAYLQMNSLRAEDTAVYYCARMYPSWMLYPYYMFAGMDYWGQGTLVTVSS
VL: B1 VL with S91R, Y92W, Y93V, W94Y
notes: also called INC-N-11 Fab
B8: INC-N-19 (Fab, V domains shown)
VH: EVQLVESGGGLVQPGGSLRLSCAASGFNVYYSYIHWVRQAPGKGLEWVASIYPYSGYTSYADSVKGRFTISADTSKNTAYLQMNSLRAEDTAVYYCARWRWPGLQFGYGMDYWGQGTLVTVSS
VL: B1 VL with Y93W, I96L
notes: also called INC-N-19 Fab
B9: INC-N-14 (Fab, V domains shown)
VH: EVQLVESGGGLVQPGGSLRLSCAASGFNVSSYSIHWVRQAPGKGLEWVASIYPSSGSTYYADSVKGRFTISADTSKNTAYLQMNSLRAEDTAVYYCARKGYGWFYYYIEWYSPYAFDYWGQGTLVTVSS
VL: B1 VL with W94Y, I96V
notes: light chain shared with INC-N-18; also called INC-N-14 Fab
B10: INC-N-35 (Fab, V domains shown)
VH: EVQLVESGGGLVQPGGSLRLSCAASGFNFYSYSIHWVRQAPGKGLEWVASISSSSGSTSYADSVKGRFTISADTSKNTAYLQMNSLRAEDTAVYYCARHFHNPYSWDYWYGWYTALDYWGQGTLVTVSS
VL: B1 VL with Y92S, Y93S, W94S, P95L
notes: also called INC-N-35 Fab
B11: INC-N-38 (Fab, V domains shown)
VH: EVQLVESGGGLVQPGGSLRLSCAASGFNVYSSSIHWVRQAPGKGLEWVAYISSYSGYTYYADSVKGRFTISADTSKNTAYLQMNSLRAEDTAVYYCARTIYSSSYFYTWFIYGAAFDYWGQGTLVTVSS
VL: B1 VL with Y92W, Y93M, W94Y
notes: also called INC-N-38 Fab
B12: INC-N-12 (Fab, V domains shown)
VH: EVQLVESGGGLVQPGGSLRLSCAASGFNFSSSSIHWVRQAPGKGLEWVASIYSYSGSTYYADSVKGRFTISADTSKNTAYLQMNSLRAEDTAVYYCARYHWYYYWYWGGVSPAMDYWGQGTLVTVSS
VL: B1 VL with S91M, Y92R, W94Y
notes: also called INC-N-12 Fab
B13: INC-N-16 Fab (Fab, V domains shown)
VH: EVQLVESGGGLVQPGGSLRLSCAASGFNFYSSSIHWVRQAPGKGLEWVASIYPYSGYTSYADSVKGRFTISADTSKNTAYLQMNSLRAEDTAVYYCARAWIYAMDYWGQGTLVTVSS
VL: B1 VL with S91W, Y92D, Y93Q, P95L

How the values were obtained:
[1] = molecular target: T1, INCENP N-terminal domain (1-58), His- …; assay: single-point protein ELISA, 200 nM Fab on 50 nM immobilised biotinylated target, protein L-HRP, A450
Description: To rapidly reconfirm the binding and specificity of the obtained Fabs after reformatting into the expression vectors single-point Fab ELISA was performed (FIG. 2). Briefly, 50 nM Avi-tagged targets were immobilized on the prepared NAV-coated and blocked with 0.5% BSA in PBS 96-well ELISA plates. The target coated plates were washed with appropriate buffer (TBST or PBST) and were incubated with 200 nM Fab for 20 minutes and then washed. The washed plates were incubated with protein L conjugated with HRP (1:5000 diluted in TBST) for 30 minutes. Plates were washed and the reaction was developed using the TMB chromogenic substrate (Thermofisher) and subsequently quenched with 1M HCl. Absorbance was read at 450 nm on Epoch plate reader.

[2] = molecular target: T1, INCENP N-terminal domain (1-58), His- …; assay: SPR, target immobilised on NTA chip via His-tag, two-fold Fab dilutions from 100 nM, 1:1 Langmuir fit
Description: The targets were immobilized onto a nitrilotriacetic acid (NTA) sensor chip via His-tag. 2-fold serial dilutions of the Fab were injected following ligand immobilization on the sensor chip. For each kinetic assay at least five dilutions of the Fab were tested. The data were fitted using 1:1 Langmuir Model to obtain the on-rate, off-rate and the affinity (KD) of the Fab-target interaction. (FIG. 3).

[3] = molecular target: T3, INCENP displayed on the surface of cancer cells (UniProt Q9NQS7 1-918, limits assumed); assay: flow cytometry, 200 nM Fab on MCF7 breast cancer cells, anti-human F(ab')2-A647 secondary, MFI
T3 construct: whole, on cells; The sentence says 'various cancer cell lines'; also called cell surface INCENP
Description: (§1) Human or murine tumor cells were trypsinized, washed and resuspended in Flow buffer (1×PBS supplemented with 2% FBS) and added to a 96-well plate (#3799, Costar). 200 nM primary CPC Fab was mixed with 0.5M cells and incubated at 37 C for 20 min. Cells were washed with Flow buffer and stained with anti-human-FAB′2-A647 secondary antibody (#109-605-006, Jackson, 1:200) for 20 min at room temperature and washed again. Samples were analyzed by flow cytometry using CytoFLEX (Beckman Coulter) and mean fluorescence intensity (MFI) data was extracted using the FlowJo software (FIG. 4A-E, FIG. 5). Human peripheral blood mononuclear cells (PBMCs) derived from a single patient were used as a source of healthy human cells. PBMCs were counted, split and spun down 400×g 5 min. Cells were resuspended in Flow buffer (1×PBS supplemented with 2% FBS) and pre-incubated with TruStain FcX (1:20, Biolegend 422302) for 10 min at 37 C, followed by 200 nM primary Fab incubation at 37 for 20 min. Cells were washed twice and stained with secondary antibody (Alexa Fluor 647 AffiniPure Goat Anti-Human IgG, F(ab′)2 fragment specific, #109-605-006, Jackson, 1:200), for 20 min at RT, washed twice and analyzed by using CytoFLEX (Beckman Coulter). Mean fluorescence intensity (MFI) data was extracted using the FlowJo software (FIG. 4F).

[4] = molecular target: T2, INCENP on the surface of murine tumor …; assay: flow cytometry, 200 nM Fab on CT26 murine colorectal carcinoma cells, anti-human F(ab')2-A647 secondary, MFI [CT26]
Description: as §1

[5] = molecular target: T3, INCENP displayed on the surface of …; assay: flow cytometry, 200 nM Fab on MDA-231 breast cancer cells, anti-human F(ab')2-A647 secondary, MFI
Description: as §1

INCENP FL = molecular target: T4, INCENP FL (Homo sapiens, UniProt Q9NQS7); assay: western blot, HeLa cell lysate on SDS-PAGE / PVDF, INC-N-16 Fab as primary, anti-human F(ab')2 IgG-HRP secondary
T4 construct: full length, denatured on SDS-PAGE and blotted; also called full-length INCENP in HeLa cell lysate
Description: (§2) Membranes were stained with Ponceau S dye to verify correct transfer of the proteins, were briefly washed with ddH2O and blocked with 4% skimmed milk in TBS-T containing 0.05% Tween20 for 30 min. at RT on the shaker. […] Membranes were washed 3 times with TBS-T and incubated with secondary anti-human FAB′2 specific HRP-conjugated IgG (diluted 1:10,000 in blocking buffer) for 45 minutes at RT, shaking. Membranes were washed again 3× with TBS-T, developed with ECL chemiluminescent substrate and visualized with the Biorad imaging instrument (FIG. 11).

[6] = molecular target: T1, INCENP N-terminal domain (1-58), His- …; assay: western blot, recombinant INC-N on SDS-PAGE / PVDF, INC-N-16 Fab as primary, anti-human F(ab')2 IgG-HRP secondary
Description: as §2

Binder | binding result [1] | Kd [2] | koff [2] | kon [2] | other results
B1 | binds | – | – | – | –
B2 | – | 14.8 nM | 0.011 s⁻¹ | 760000 M⁻¹ s⁻¹ | –
B3 | binds | – | – | – | binding result [3]: binds
B4 | – | 20 nM | 0.0029 s⁻¹ | 140000 M⁻¹ s⁻¹ | –
B5 | – | 6.3 nM | 0.0049 s⁻¹ | 770000 M⁻¹ s⁻¹ | binding result [4]: binds
B6 | binds | – | – | – | –
B7 | – | 4.2 nM | 0.0031 s⁻¹ | 740000 M⁻¹ s⁻¹ | –
B8 | binds | – | – | – | –
B9 | binds | – | – | – | –
B10 | binds | – | – | – | binding result [5]: binds
B11 | – | 1.2 nM | 0.0005 s⁻¹ | 420000 M⁻¹ s⁻¹ | –
B12 | binds | – | – | – | –
B13 | – | – | – | – | binding result (INCENP FL): binds; binding result [6]: binds

From US20240408138A1 (UNIVERSITY OF CHICAGO, published 2024)
